Measurements taken from patent US8835379B2, “Derivatives of CGRP” (Novo Nordisk A/S, priority 2009, dated 2014).
*1 amine or outer side, *2 acyl side, *3 side chain or, on linkers, in order; H or OH if unused. Bridges are numbered along the chain shown (N, C = ends). Where no end group is shown, it is not given here. Side-chain parts run from the residue outwards. The star is where a group is joined. C18 diacid = O=C(O)CCCCCCCCCCCCCCCCC(=O)*; γGlu = O=C(O)[C@H](CCC(=O)[*:2])N[*:1]; AEEA = NCCOCCOCC(=O)O

Target: CGRP receptor: calcitonin receptor-like receptor (CRLR) with receptor activity modifying protein-1 (RAMP1), stably transfected in Chinese hamster ovary (CHO) cells together with CRE luciferase
Experiment: cell-based or functional assay

Molecule | EC50, pM (in vitro potency; CGRP-induced cAMP accumulation in CGRP receptor expressing cells, CRE luciferase) [pM] | pEC50-ratio relative to human alpha-CGRP
ACDTATCVTHK([AEEA-AEEA-γGlu-C18 diacid])LAGLLSRSGGVVKNNFVPTNVGSKAF (disulfide 2-7; ends not checked) [human alpha-CGRP acylated at position 11] |  | 0.28
ACDTATCVTHRLAGLLSRSGGVVKNK([AEEA-AEEA-γGlu-C18 diacid])FVPTNVGSKAF (disulfide 2-7; ends not checked) [human alpha-CGRP acylated at position 26] |  | 0.38
ACDK([AEEA-AEEA-γGlu-C18 diacid])ATCVTHRLAGLLSRSGGVVKNNFVPTNVGSKAF (disulfide 2-7; ends not checked) [human alpha-CGRP acylated at position 4] |  | 0.15
ACDTATCVTHRLAGLLSRSGGVVKNNFK([AEEA-AEEA-γGlu-C18 diacid])PTNVGSKAF (disulfide 2-7; ends not checked) [human alpha-CGRP acylated at position 28] |  | 0.62
ACDTATCVTHRLAGLLSRSGGVVKKNFVPTNVGSKAF (position 25 (printed X) = N-ε-{2-(2-{2-[2-(2-{2-[4-carboxy-4-(17-carboxyheptadecanoylamino)butyrylamino]ethoxy}ethoxy)-acetylamino]ethoxy}ethoxy)acetyl})-L-lysine; Cys2 and Cys7 are cyclised with a disulfide bond) [human alpha-CGRP acylated at position 25] |  | 0.23
ACK([AEEA-AEEA-γGlu-C18 diacid])TATCVTHRLAGLLSRSGGVVKNNFVPTNVGSKAF (disulfide 2-7; ends not checked) [human alpha-CGRP acylated at position 3] |  | 0.14

Further lines, results first:

EC50, pM (in vitro potency; CGRP-induced cAMP accumulation in CGRP receptor expressing cells, CRE luciferase) [pM] | pEC50-ratio relative to human alpha-CGRP | Molecule
9 |  | rat CGRP-beta (from UniProt P10093 89-125) (peptide)
 | 0.41 | ACDTATCVTHRLAGLLSRSGGVVKNNFVK([AEEA-AEEA-γGlu-C18 diacid])TNVGSKAF (disulfide 2-7; ends not checked) [human alpha-CGRP acylated at position 29]
 | 0.44 | ACDTATCVTHRLAGLLSRSGGVVKNNFVPTK([AEEA-AEEA-γGlu-C18 diacid])VGSKAF (disulfide 2-7; ends not checked) [human alpha-CGRP acylated at position 31]
5 |  | SCNTATCVTHRLAGLLSRSGGVVKDNFVPTNVGSEAF (peptide, UniProt P01256 83-119, looked up, disulfide 2-7; ends not checked) [rat CGRP-alpha]
